Assay results: PMC6555819, “Comprehensive study of nuclear receptor DNA binding provides a revised framework for understanding receptor specificity”

Columns and labels:
RXRa = RXRa (Homo sapiens, UniProt P19793); test: no ligand; PBM; 180 nM; PBS pH 7.4, 2% milk, 0.02% Triton X-100, 1 mM DTT, BSA, 0.4 mg/ml salmon testes DNA; details: tags: His cleaved; chain copies: 2; label: surface-attached array probe
VDR:RXRa = VDR:RXRa (Homo sapiens, UniProt P11473;P19793 full;full); test: no ligand; PBM; 270 nM : 90 nM RXRa; PBS pH 7.4, 2% milk, 0.02% Triton X-100, 1 mM DTT, BSA, 0.4 mg/ml salmon testes DNA; details: tags: His kept;His cleaved; copies: 1;1; label: surface-attached array probe
Method in brief: (§1)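 Probes were double-stranded and carried 34-nt variable regions with direct-repeat seeds, single-nucleotide variants, half-site ablations and random human genomic background sequences, printed on custom Agilent 4×180K protein-binding microarrays. Arrays were incubated 1 h with ligand-free nuclear receptor dimers in PBS pH 7.4, 2% milk, 0.02% Triton X-100, 1 mM DTT, 0.2 mg/mL BSA and 0.4 mg/ml salmon testes DNA. Antibodies against each partner (one per run) detected binding, and scanned fluorescence was regression-normalized. Binding z-scores use the random background probes as reference.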

LXRa:RXRa = LXRa:RXRa (Homo sapiens, UniProt Q13133;P19793 full;full); test: as above; details: tags: His kept;His cleaved; copies: 1;1; label: surface-attached array probe
Method in brief: as §1

PPARa:RXRa = PPARa:RXRa (Homo sapiens, UniProt Q07869;P19793 full;full); test: as above; details: tags: GST kept;His cleaved; copies: 1;1; label: surface-attached array probe
Method in brief: as §1

LXRb:RXRa = LXRb:RXRa (Homo sapiens, UniProt P55055;P19793 full;full); test: as above; details: tags: His kept;His cleaved; copies: 1;1; label: surface-attached array probe
Method in brief: as §1

FXR:RXRa = FXR:RXRa (Homo sapiens, UniProt Q96RI1;P19793 full;full); test: as above; details: tags: His kept;His cleaved; copies: 1;1; label: surface-attached array probe
Method in brief: as §1

PXR:RXRa = PXR:RXRa (Homo sapiens, UniProt O75469;P19793 full;full); test: as above; details: tags: His kept;His cleaved; copies: 1;1; label: surface-attached array probe
Method in brief: as §1

RARa:RXRa = RARa:RXRa (Homo sapiens, UniProt P10276;P19793 full;full); test: as above; details: tags: His kept;His cleaved; copies: 1;1; label: surface-attached array probe
Method in brief: as §1

RARg:RXRa = RARg:RXRa (Homo sapiens, UniProt P13631;P19793 full;full); test: as above; details: tags: His kept;His cleaved; copies: 1;1; label: surface-attached array probe
Method in brief: as §1

RARb:RXRa = RARb:RXRa (Homo sapiens, UniProt P10826;P19793 full;full); test: as above; details: tags: His kept;His cleaved; copies: 1;1; label: surface-attached array probe
Method in brief: as §1

PPARg:RXRa = PPARg:RXRa (Homo sapiens, UniProt P37231;P19793 full;full); test: no ligand; PBM; 180 nM : 90 nM RXRa; PBS pH 7.4, 2% milk, 0.02% Triton X-100, 1 mM DTT, BSA, 0.4 mg/ml salmon testes DNA; details: tags: His kept;His cleaved; copies: 1;1; label: surface-attached array probe
PPARg:RXRa, sequence (P37231 29-505, chain 1 of 2): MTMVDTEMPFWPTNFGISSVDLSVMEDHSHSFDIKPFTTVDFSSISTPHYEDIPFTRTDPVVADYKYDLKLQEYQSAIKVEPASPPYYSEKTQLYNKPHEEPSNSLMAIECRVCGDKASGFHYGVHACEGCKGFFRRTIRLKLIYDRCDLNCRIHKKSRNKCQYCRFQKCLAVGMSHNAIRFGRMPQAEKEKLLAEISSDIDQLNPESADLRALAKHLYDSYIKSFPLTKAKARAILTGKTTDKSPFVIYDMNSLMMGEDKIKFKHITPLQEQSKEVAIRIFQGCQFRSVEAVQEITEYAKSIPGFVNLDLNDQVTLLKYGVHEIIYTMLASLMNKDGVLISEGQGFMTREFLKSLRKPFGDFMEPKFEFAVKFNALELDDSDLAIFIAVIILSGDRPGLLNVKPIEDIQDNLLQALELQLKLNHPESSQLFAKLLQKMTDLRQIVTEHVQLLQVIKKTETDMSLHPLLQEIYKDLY
PPARg:RXRa, sequence (P19793 whole entry, chain 2 of 2): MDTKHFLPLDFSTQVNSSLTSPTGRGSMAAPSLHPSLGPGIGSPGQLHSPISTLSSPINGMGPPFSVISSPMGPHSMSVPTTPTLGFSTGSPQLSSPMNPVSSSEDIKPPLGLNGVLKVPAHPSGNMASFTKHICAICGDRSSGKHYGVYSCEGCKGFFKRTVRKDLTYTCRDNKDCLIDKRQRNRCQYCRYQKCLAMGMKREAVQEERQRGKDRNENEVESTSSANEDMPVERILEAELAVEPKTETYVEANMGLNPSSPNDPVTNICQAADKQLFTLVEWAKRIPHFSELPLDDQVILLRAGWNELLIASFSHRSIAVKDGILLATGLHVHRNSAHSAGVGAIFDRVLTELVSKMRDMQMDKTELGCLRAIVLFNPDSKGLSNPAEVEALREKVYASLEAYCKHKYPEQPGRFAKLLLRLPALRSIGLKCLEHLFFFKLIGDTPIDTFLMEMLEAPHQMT

PPARa:RXRa, sequence (Q07869 whole entry, chain 1 of 2): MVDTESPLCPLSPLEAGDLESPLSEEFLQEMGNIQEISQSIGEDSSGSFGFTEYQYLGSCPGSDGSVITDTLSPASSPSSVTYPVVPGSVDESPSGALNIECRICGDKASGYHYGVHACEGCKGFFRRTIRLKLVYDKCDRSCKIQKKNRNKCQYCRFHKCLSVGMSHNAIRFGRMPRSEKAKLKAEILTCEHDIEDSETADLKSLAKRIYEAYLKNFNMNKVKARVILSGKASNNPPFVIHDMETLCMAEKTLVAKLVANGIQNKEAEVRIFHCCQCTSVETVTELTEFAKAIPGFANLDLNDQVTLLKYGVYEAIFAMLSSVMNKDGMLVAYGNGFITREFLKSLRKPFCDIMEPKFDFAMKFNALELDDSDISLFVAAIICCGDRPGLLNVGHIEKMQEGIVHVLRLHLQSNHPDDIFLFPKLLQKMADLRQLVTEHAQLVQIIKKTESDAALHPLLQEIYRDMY
PPARa:RXRa, sequence (P19793 whole entry, chain 2 of 2): as the sequence (P19793 whole entry, chain 2 of 2) above
RARg:RXRa, sequence (P13631 whole entry, chain 1 of 2): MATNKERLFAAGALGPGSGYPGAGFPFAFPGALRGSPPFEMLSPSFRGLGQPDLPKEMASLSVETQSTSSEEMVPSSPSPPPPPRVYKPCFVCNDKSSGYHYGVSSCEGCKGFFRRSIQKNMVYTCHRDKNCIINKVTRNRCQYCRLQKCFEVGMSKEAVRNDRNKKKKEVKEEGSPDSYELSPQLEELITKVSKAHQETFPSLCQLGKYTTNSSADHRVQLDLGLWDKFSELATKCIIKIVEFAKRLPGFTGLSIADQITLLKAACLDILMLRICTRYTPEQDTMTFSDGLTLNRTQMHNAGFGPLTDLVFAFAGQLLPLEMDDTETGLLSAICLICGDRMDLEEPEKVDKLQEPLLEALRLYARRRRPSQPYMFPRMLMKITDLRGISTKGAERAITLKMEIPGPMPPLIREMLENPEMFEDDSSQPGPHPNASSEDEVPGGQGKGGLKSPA
RARg:RXRa, sequence (P19793 whole entry, chain 2 of 2): as the sequence (P19793 whole entry, chain 2 of 2) above
RARa:RXRa, sequence (P10276 whole entry, chain 1 of 2): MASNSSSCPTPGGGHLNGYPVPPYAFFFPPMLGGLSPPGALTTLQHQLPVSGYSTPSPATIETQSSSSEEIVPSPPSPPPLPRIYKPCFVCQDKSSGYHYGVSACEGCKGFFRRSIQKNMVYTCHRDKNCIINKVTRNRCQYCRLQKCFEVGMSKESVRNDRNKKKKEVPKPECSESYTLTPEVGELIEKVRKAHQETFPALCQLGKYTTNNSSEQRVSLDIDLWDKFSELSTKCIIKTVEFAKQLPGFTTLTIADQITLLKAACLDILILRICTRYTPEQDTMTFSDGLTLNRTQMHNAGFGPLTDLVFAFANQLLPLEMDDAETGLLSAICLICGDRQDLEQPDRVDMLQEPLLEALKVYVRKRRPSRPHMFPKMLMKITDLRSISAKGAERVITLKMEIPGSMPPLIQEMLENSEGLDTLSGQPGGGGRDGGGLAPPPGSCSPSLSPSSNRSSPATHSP
RARa:RXRa, sequence (P19793 whole entry, chain 2 of 2): as the sequence (P19793 whole entry, chain 2 of 2) above
RARb:RXRa, sequence (P10826 whole entry, chain 1 of 2): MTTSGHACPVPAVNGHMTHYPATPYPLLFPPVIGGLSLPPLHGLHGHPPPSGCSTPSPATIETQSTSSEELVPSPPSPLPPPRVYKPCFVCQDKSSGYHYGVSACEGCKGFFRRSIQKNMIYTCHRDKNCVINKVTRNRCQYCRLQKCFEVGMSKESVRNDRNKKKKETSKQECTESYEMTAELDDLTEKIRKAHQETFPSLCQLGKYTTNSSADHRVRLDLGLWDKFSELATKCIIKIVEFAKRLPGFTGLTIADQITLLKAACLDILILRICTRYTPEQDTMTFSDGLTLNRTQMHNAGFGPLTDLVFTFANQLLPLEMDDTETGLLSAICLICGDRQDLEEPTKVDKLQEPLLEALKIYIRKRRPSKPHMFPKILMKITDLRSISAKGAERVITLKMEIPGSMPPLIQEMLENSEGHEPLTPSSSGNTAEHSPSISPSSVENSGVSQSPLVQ
RARb:RXRa, sequence (P19793 whole entry, chain 2 of 2): as the sequence (P19793 whole entry, chain 2 of 2) above
LXRb:RXRa, sequence (P55055 whole entry, chain 1 of 2): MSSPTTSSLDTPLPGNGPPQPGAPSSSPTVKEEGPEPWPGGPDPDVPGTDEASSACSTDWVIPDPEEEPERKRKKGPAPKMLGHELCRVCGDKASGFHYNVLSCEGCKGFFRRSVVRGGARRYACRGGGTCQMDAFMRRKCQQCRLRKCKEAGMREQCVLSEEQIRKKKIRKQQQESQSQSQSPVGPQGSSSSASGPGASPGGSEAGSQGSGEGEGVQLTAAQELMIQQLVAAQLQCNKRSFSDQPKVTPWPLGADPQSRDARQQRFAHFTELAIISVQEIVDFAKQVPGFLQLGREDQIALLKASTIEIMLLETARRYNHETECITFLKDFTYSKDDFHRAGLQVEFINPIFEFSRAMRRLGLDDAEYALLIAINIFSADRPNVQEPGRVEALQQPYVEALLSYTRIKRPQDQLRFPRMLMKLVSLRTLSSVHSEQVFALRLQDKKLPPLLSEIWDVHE
LXRb:RXRa, sequence (P19793 whole entry, chain 2 of 2): as the sequence (P19793 whole entry, chain 2 of 2) above
VDR:RXRa, sequence (P11473 whole entry, chain 1 of 2): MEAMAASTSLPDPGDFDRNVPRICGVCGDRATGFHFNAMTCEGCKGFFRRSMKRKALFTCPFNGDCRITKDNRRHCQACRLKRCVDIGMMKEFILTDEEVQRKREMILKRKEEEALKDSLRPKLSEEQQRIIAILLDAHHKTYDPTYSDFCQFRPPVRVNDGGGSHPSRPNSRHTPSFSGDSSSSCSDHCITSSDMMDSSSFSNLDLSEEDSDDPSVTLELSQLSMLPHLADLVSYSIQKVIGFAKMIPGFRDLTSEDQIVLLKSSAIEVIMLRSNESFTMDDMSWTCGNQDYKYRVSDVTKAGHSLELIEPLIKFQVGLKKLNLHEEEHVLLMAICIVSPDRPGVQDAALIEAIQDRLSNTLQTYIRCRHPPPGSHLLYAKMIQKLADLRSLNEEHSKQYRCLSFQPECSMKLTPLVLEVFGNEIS
VDR:RXRa, sequence (P19793 whole entry, chain 2 of 2): as the sequence (P19793 whole entry, chain 2 of 2) above
RXRa, sequence (P19793 whole entry): as the sequence (P19793 whole entry, chain 2 of 2) above
FXR:RXRa, sequence (Q96RI1 whole entry, chain 1 of 2): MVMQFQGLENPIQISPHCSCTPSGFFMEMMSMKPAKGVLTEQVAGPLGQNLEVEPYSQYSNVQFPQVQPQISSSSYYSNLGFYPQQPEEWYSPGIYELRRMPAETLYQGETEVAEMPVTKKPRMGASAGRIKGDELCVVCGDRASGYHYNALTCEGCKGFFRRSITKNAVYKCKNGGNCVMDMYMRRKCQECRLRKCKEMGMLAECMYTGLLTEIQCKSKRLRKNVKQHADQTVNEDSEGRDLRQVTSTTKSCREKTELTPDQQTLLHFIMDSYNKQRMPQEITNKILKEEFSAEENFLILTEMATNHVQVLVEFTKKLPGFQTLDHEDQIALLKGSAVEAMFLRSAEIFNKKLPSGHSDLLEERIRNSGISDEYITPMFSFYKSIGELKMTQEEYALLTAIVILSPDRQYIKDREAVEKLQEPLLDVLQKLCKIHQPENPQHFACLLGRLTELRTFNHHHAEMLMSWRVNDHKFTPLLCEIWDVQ
FXR:RXRa, sequence (P19793 whole entry, chain 2 of 2): as the sequence (P19793 whole entry, chain 2 of 2) above

Row | Binder | binding signal (RXRa) | binding signal (VDR:RXRa) | binding signal (LXRa:RXRa) | binding signal (PPARa:RXRa) | binding signal (LXRb:RXRa) | binding signal (FXR:RXRa) | binding signal (PXR:RXRa) | binding signal (RARa:RXRa) | binding signal (RARg:RXRa) | binding signal (RARb:RXRa) | binding signal (PPARg:RXRa)
1 | NRC3_wobSeed114_DR4_A8G_o1 (dsDNA) DNA 1: GCAATACGGGGTCATCGTAGGCCAGAGTACGCACAGGCGATTGACAGCGTAGAATGAAGG DNA 2: CCTTCATTCTACGCTGTCAATCGCCTGTGCGTACTCTGGCCTACGATGACCCCGTATTGC | 9.29 PBM z-score against 500 random probes | 7.09 PBM z-score against 500 random probes | 7.63 PBM z-score against 500 random probes | 6.87 PBM z-score against 500 random probes | 6.75 PBM z-score against 500 random probes | 8.6 PBM z-score against 500 random probes | 6.64 PBM z-score against 500 random probes | 7.2 PBM z-score against 500 random probes | 7.44 PBM z-score against 500 random probes | – | –
2 | NRC3_wobSeed123_DR5_A12T_o1 (dsDNA) DNA 1: GCCCTCGGAGGTCAACAGGAGGTCAGAGCTGCCAGAGCGATTGACAGCGTAGAATGAAGG DNA 2: CCTTCATTCTACGCTGTCAATCGCTCTGGCAGCTCTGACCTCCTGTTGACCTCCGAGGGC | – | – | 6.72 PBM z-score against 500 random probes | 6.94 PBM z-score against 500 random probes | – | 7.97 PBM z-score against 500 random probes | 6.48 PBM z-score against 500 random probes | 7.44 PBM z-score against 500 random probes | 8.86 PBM z-score against 500 random probes | 5.85 PBM z-score against 500 random probes | –
3 | NRC3_wobSeed38_DR1_T16G_o1 (dsDNA) DNA 1: GCCCTGCTAGGTCAAGGGTCAGCTAAAGCAGCTCGCGCGATTGACAGCGTAGAATGAAGG DNA 2: CCTTCATTCTACGCTGTCAATCGCGCGAGCTGCTTTAGCTGACCCTTGACCTAGCAGGGC | – | – | – | – | – | – | – | 7.26 PBM z-score against 500 random probes | – | – | 10.5 PBM z-score against 500 random probes
4 | NRC3_random_hg19_25_o1 (dsDNA) DNA 1: GCGAGCCACCACGCCTGGCCTCTCCGATCTCCAACTGCGATTGACAGCGTAGAATGAAGG DNA 2: CCTTCATTCTACGCTGTCAATCGCAGTTGGAGATCGGAGAGGCCAGGCGTGGTGGCTCGC | – | – | -0.38 PBM z-score against 500 random probes | – | -0.09 PBM z-score against 500 random probes | – | -0.45 PBM z-score against 500 random probes | -0.44 PBM z-score against 500 random probes | – | – | –
5 | NRC3_wobSeed97_DR4_T8A_o1 (dsDNA) DNA 1: GCCAAACAAGGTCACGAAAGGTCAAAGTCGAATGACGCGATTGACAGCGTAGAATGAAGG DNA 2: CCTTCATTCTACGCTGTCAATCGCGTCATTCGACTTTGACCTTTCGTGACCTTGTTTGGC | 9.58 PBM z-score against 500 random probes | 7.94 PBM z-score against 500 random probes | 8.85 PBM z-score against 500 random probes | 7 PBM z-score against 500 random probes | 8.12 PBM z-score against 500 random probes | 8.87 PBM z-score against 500 random probes | 7.87 PBM z-score against 500 random probes | 8.72 PBM z-score against 500 random probes | 8.87 PBM z-score against 500 random probes | 6.14 PBM z-score against 500 random probes | –
6 | NRC3_wobSeed97_DR4_T8G_o1 (dsDNA) DNA 1: GCCAAACGAGGTCACGAAAGGTCAAAGTCGAATGACGCGATTGACAGCGTAGAATGAAGG DNA 2: CCTTCATTCTACGCTGTCAATCGCGTCATTCGACTTTGACCTTTCGTGACCTCGTTTGGC | 9.84 PBM z-score against 500 random probes | 7.51 PBM z-score against 500 random probes | 8.87 PBM z-score against 500 random probes | 6.96 PBM z-score against 500 random probes | 7.93 PBM z-score against 500 random probes | 9.24 PBM z-score against 500 random probes | 7.9 PBM z-score against 500 random probes | 8.33 PBM z-score against 500 random probes | 8.98 PBM z-score against 500 random probes | 6.03 PBM z-score against 500 random probes | –
7 | NRC3_wobSeed97_DR4_C7A_o1 (dsDNA) DNA 1: GCCAAAATAGGTCACGAAAGGTCAAAGTCGAATGACGCGATTGACAGCGTAGAATGAAGG DNA 2: CCTTCATTCTACGCTGTCAATCGCGTCATTCGACTTTGACCTTTCGTGACCTATTTTGGC | – | 7.26 PBM z-score against 500 random probes | – | – | 7.91 PBM z-score against 500 random probes | 8.43 PBM z-score against 500 random probes | 7.78 PBM z-score against 500 random probes | 8.32 PBM z-score against 500 random probes | 8.41 PBM z-score against 500 random probes | – | –
8 | NRC3_wobSeed27_DR1_A12G_o1 (dsDNA) DNA 1: GCACTCGGAGGGCAAAGGTCAGAGCTACGCCAGTGAGCGATTGACAGCGTAGAATGAAGG DNA 2: CCTTCATTCTACGCTGTCAATCGCTCACTGGCGTAGCTCTGACCTTTGCCCTCCGAGTGC | 8.52 PBM z-score against 500 random probes | – | – | – | – | – | – | 7.48 PBM z-score against 500 random probes | – | – | 9.6 PBM z-score against 500 random probes
9 | NRC3_wobSeed73_DR3_T8A_o1 (dsDNA) DNA 1: GCCAAACAAGGTCACAGAGGTCAAAGTCCGTGCGTAGCGATTGACAGCGTAGAATGAAGG DNA 2: CCTTCATTCTACGCTGTCAATCGCTACGCACGGACTTTGACCTCTGTGACCTTGTTTGGC | 10.1 PBM z-score against 500 random probes | 8.7 PBM z-score against 500 random probes | 7.79 PBM z-score against 500 random probes | 6.92 PBM z-score against 500 random probes | 7.37 PBM z-score against 500 random probes | 8.84 PBM z-score against 500 random probes | 7.48 PBM z-score against 500 random probes | 8.63 PBM z-score against 500 random probes | 8.47 PBM z-score against 500 random probes | 6.08 PBM z-score against 500 random probes | –
10 | NRC3_wobSeed121_DR5_C30T_o1 (dsDNA) DNA 1: GCCAAACTAGGTCACCGGAAGGTCAAAGTTCGCATGGCGATTGACAGCGTAGAATGAAGG DNA 2: CCTTCATTCTACGCTGTCAATCGCCATGCGAACTTTGACCTTCCGGTGACCTAGTTTGGC | 8.07 PBM z-score against 500 random probes | – | – | – | – | – | – | 8.54 PBM z-score against 500 random probes | – | – | 10.6 PBM z-score against 500 random probes
11 | NRC3_wobSeed109_DR4_C7T_o1 (dsDNA) DNA 1: GCCGTCTAAGGTCATAGGAGGTCAGTGAAGACAGATGCGATTGACAGCGTAGAATGAAGG DNA 2: CCTTCATTCTACGCTGTCAATCGCATCTGTCTTCACTGACCTCCTATGACCTTAGACGGC | – | – | 8.01 PBM z-score against 500 random probes | – | – | 8.24 PBM z-score against 500 random probes | 7.34 PBM z-score against 500 random probes | 7.11 PBM z-score against 500 random probes | – | – | –
12 | NRC3_wobSeed28_DR1_C7G_o1 (dsDNA) DNA 1: GCCCTAGTGGGCCAAAGGTCATTGATTCCAATGCTCGCGATTGACAGCGTAGAATGAAGG DNA 2: CCTTCATTCTACGCTGTCAATCGCGAGCATTGGAATCAATGACCTTTGGCCCACTAGGGC | – | – | – | – | – | – | – | 7.08 PBM z-score against 500 random probes | – | – | 13.1 PBM z-score against 500 random probes
13 | NRC3_wobSeed138_DR5_C23T_o1 (dsDNA) DNA 1: GCGATACAGGGTCAGCTAGAGGTCAGAGTATGGAAAGCGATTGACAGCGTAGAATGAAGG DNA 2: CCTTCATTCTACGCTGTCAATCGCTTTCCATACTCTGACCTCTAGCTGACCCTGTATCGC | – | – | – | – | – | – | – | 7.75 PBM z-score against 500 random probes | 9.04 PBM z-score against 500 random probes | – | 5.41 PBM z-score against 500 random probes
14 | NRC3_wobSeed29_DR1_C8G_o1 (dsDNA) DNA 1: GCGCTTAGGGGTCAAAGGTTATAGCATGAATAGAATGCGATTGACAGCGTAGAATGAAGG DNA 2: CCTTCATTCTACGCTGTCAATCGCATTCTATTCATGCTATAACCTTTGACCCCTAAGCGC | 10.6 PBM z-score against 500 random probes | 7.19 PBM z-score against 500 random probes | 7.36 PBM z-score against 500 random probes | 7.64 PBM z-score against 500 random probes | 7.75 PBM z-score against 500 random probes | 9.03 PBM z-score against 500 random probes | 7.35 PBM z-score against 500 random probes | 9.11 PBM z-score against 500 random probes | 8.66 PBM z-score against 500 random probes | 5.84 PBM z-score against 500 random probes | –
